The values below come from patent US20080213296A1.

The target in assay [1] is HIV 89.6 gp120 envelope protein (soluble) (HIV 89.6 (Clade B) primary isolate). Description: SPR capture assay, mAb pre-incubated with 89.6 gp120, captured on A32; competitor DP178 50 µg/ml.
Assay [2] addresses soluble CD4 (UniProt P01730). Description: SPR, gp120 over immobilized CD4.
In assay [3] the target is soluble CD4 (UniProt P01730). Briefly: SPR. For orientation: SPR reads the build-up and loss of mass on a sensor chip optically.
For assay [4], the target named is recombinant HIV ADA gp41 protein (HIV ADA). Briefly: SPR, 89.6 gp120 pre-incubated with 0.3 mg/ml CD4, over immobilized ADA gp41.
Assay [5] has the same target. Description: SPR, 89.6 gp120 (100 µg/ml) over immobilized ADA gp41.
For assay [6], the target named is scrambled sequence DP178 peptide. Briefly: SPR SA-chip assay, A32 over biotinylated scrDP178.
Assay [7] concerns the target HIV 89.6 gp120 envelope protein (soluble) (HIV 89.6 (Clade B) primary isolate). Briefly: SPR capture assay, gp120 over immobilized A32.
The target is the same in assay [8]. Briefly: SPR SA-chip assay, 89.6 gp120 alone over biotinylated scrDP178.
The target of assay [9] is HIV 89.6 gp140 envelope protein (cleaved gp140 preparation, oligomers) (HIV 89.6 (Clade B) primary isolate). Description: SPR, D1 peptide over 89.6 gp140 captured on immobilized CD4 (CD4-gp140 complex).
Assay [10] shares this target. Description: SPR, D1 peptide over directly immobilized 89.6 gp140, no CD4.
For assay [11] the target is unchanged. Briefly: SPR, sCD4-ligated gp140.

Values joined by “and” are separate entries in the source; they are usually repeats but may differ in a detail not shown here. Equal values may be shown once.

On to “mab 17b (human, CCR5/coreceptor binding site of gp120) (antibody)”, for which, in [1], the % blocking of DP178 binding worked out at 80%.
As a reminder, the Kd is the concentration at which binding is half-saturated. High values mean lower affinity, low ones higher affinity. Usually koff stands for the first-order rate constant of dissociation. Lower therefore signals slow dissociation. In [2], “HIV 89.6 gp120 envelope protein (soluble)” came in with a Kd of 23 nM and a koff of 0.00011 s⁻¹. Also, the t1/2 of binding in [3] was determined as 105 min. Besides, the RU bound in [4] stood at 850 RU. For the same substance, in [5], the RU bound was found to be 300 RU.
As to “mab A32 (human anti-gp120, conformational determinant) (antibody)”, the RU (background signal) in assay [6] was 10 RU and 20 RU. The same substance registered an RU bound in [7] of 2000 RU.
In [8], scrambled sequence DP178 peptide had an RU (constitutive binding) of 50 RU.
Turning to “mAb 48d (human, coreceptor binding site of gp120) (antibody)”, the % blocking of DP178 binding in [1] worked out at 80%.
Same read-out and setting: under “mab 19b (human anti-gp120 V3 loop) (antibody)” stands 68%.
In the case of HIV JRFL gp120 (soluble, monomeric), in [2], the Kd is 146 nM and the koff stood at 0.00088 s⁻¹. The same substance came in with a t1/2 of binding in assay [3] of 14 min.
The corresponding values for HIV DH12 gp120 (soluble, monomeric) are 96 nM, 0.00047 s⁻¹ and 25 min.
A word on the kon: it is the second-order rate constant of association. Low readings indicate slower complex formation, high ones faster complex formation. In assay [9], “CCR5-D1 peptide (CCR5 N-terminal extracellular domain peptide)” had an equilibrium dissociation constant (Kd) of 280 nM, a koff of 0.00256 s⁻¹ and a kon of 9000 M⁻¹ s⁻¹. In assay [10], this substance returned a Kd of 1000 nM and a koff of 0.01 s⁻¹. Also, in assay [11], the Kd was found to be 280000 nM.
